According to paper PMC8062929, “ZmOrphan94 Transcription Factor Downregulates ZmPEPC1 Gene Expression in Maize Bundle Sheath Cells”:

T1: Trx::ZmOrphan94 (Zea mays B73, UniProt C0P6E9 1-264)
T1 sequence: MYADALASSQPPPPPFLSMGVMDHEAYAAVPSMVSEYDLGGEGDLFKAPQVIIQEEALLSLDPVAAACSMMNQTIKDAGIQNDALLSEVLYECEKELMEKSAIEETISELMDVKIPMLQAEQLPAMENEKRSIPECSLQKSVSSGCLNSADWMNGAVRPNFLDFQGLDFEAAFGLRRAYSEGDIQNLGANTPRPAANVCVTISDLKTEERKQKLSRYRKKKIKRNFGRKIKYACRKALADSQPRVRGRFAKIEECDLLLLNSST

B1: 5U-ZmPEPC1-3 (dsDNA)
DNA 1: ACGTGTCCCGTGCACAGCCACACACACACCCGCCCG
DNA 2: ATCACGGGCGGGTGTGTGTGTGGCTGTGCACGGGAC
B2: 5U-ZmPEPC1-1 (dsDNA)
DNA 1: ACGTGGCGGTTACCGCCGATCACATGCCCAAGGCCG
DNA 2: ACATCGGCCTTGGGCATGTGATCGGCGGTAACCGCC
B3: 5U-ZmPEPC1-2 (dsDNA)
DNA 1: ACGTGCGAGGGCCGCCCGTTCCCGTGCACAGCCACG
DNA 2: ATCACGTGGCTGTGCACGGGAACGGGCGGCCCTCGC

Tests used:
Trx::ZmOrphan94 [1] = target: T1, Trx::ZmOrphan94; assay: EMSA; strongest band; out-competed by unlabelled WT probe (400x); EMSA: 1 ug protein, 50 fmol probe in 10 ul; 10 mM HEPES pH 7.9, 40 mM KCl, 1 mM EDTA, 1 mM DTT, 50 ng herring sperm DNA, 15 ug BSA, 10% glycerol, 1 h on ice; 5% native PAGE; settings: protein: recombinant; tags: N-terminal Trx (pET32a); label: 32P; 5' overhang 4 nt on each strand as annealed
Trx::ZmOrphan94 [2] = target: T1, Trx::ZmOrphan94; assay: EMSA; out-competed by unlabelled WT probe (400x); EMSA: 1 ug protein, 50 fmol probe in 10 ul; 10 mM HEPES pH 7.9, 40 mM KCl, 1 mM EDTA, 1 mM DTT, 50 ng herring sperm DNA, 15 ug BSA, 10% glycerol, 1 h on ice; 5% native PAGE; settings: protein: recombinant; tags: N-terminal Trx (pET32a); label: 32P; 5' overhang 4 nt on each strand as annealed

Row | Binder | binding result (Trx::ZmOrphan94 [1]) | binding result (Trx::ZmOrphan94 [2])
1 | B1 | binds | 
2 | B2 |  | binds
3 | B3 |  | binds
